Reference: US20230279123A1

Columns and labels:
IL-4Rα (on TF-1 cells) = IL-4Rα (on TF-1 cells) (UniProt P24394); experiment: cell-based or functional assay
[1] = biological target: IL-4Rα (receptor protein / antigen) (UniProt P24394); experiment: competition ELISA: IL-4Rα coated, biotin-IL-4 at EC80 mixed with antibody dilutions, OD450; hIgG is the control, the fitted value may be meaningless

Substance: dupilumab (antibody)
- EC50 of neutralizing IL-4-induced TF-1 cell proliferation (IL-4Rα (on TF-1 cells)): 130 pM
- EC50 of neutralizing IL-13-induced TF-1 cell proliferation (IL-4Rα (on TF-1 cells)): 178 pM

Substance: hIgG (antibody)
- EC50 [1]: 2040 pM
